In PMC10438392 (Proceedings of the National Academy of Sciences of the …, 2023):

Tests used:
[1] = molecular target: T1, PurTCp (PurT of Colwellia psychrerythraea) (Colwellia psychrerythraea, UniProt Q484N1); assay: SPA competition with 3H-xanthine or 3H-guanine; format: binding; conditions: 0.5 µM 3H-xanthine or 3H-guanine; pH 8.0
T1 sequence (Q484N1 1-482): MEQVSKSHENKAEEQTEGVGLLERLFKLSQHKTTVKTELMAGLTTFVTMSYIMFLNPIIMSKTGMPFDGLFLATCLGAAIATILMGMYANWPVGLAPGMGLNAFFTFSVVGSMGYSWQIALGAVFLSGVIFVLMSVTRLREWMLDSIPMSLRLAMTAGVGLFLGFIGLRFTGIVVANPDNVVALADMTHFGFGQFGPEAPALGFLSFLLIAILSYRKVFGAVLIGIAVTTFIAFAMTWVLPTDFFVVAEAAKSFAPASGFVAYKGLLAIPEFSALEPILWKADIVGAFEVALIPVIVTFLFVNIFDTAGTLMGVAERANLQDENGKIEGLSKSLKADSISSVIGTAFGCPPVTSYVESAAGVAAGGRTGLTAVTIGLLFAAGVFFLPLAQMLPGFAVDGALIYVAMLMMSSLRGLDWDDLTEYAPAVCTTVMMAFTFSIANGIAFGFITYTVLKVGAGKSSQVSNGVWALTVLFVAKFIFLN

[2] = molecular target: PurT of Colwellia psychrerythraea (PurTCp) (Colwellia psychrerythraea 34H); assay: SEC
[3] = molecular target: PurT of Colwellia psychrerythraea (PurTCp) (Colwellia psychrerythraea 34H); assay: cross-linking

stoichiometry N [2]	stoichiometry N [3]	Compound	% inhibition at 250 μM [1]
–	–	c1ncc2[nH]cnc2n1 [purine]	2-amino-6-bromopurine, 6-bromopurine, 6-thioguanine, allopurinol, isoguanine, and purine
2	2	PurT of Colwellia psychrerythraea (PurTCp) (natural protein)	–
